Target: SARS-CoV-2 Spike RBD, B.1.1.529/Omicron (SARS-CoV-2 Omicron B.1.1.529) (UniProt P0DTC2)

In the case of “Ribosomally constructed Wuhan-NS (VHH72 V104UAG construct translated with NBDxK-tRNACUA)”, the normalized tube fluorescence is reported as 0.09.
